In patent US20080141385, “Skn-1 and Gsk-3 Genes and Proteins” (published 2008):

T1: SKN-1 peptides (UniProt P34707)
T1 sequence: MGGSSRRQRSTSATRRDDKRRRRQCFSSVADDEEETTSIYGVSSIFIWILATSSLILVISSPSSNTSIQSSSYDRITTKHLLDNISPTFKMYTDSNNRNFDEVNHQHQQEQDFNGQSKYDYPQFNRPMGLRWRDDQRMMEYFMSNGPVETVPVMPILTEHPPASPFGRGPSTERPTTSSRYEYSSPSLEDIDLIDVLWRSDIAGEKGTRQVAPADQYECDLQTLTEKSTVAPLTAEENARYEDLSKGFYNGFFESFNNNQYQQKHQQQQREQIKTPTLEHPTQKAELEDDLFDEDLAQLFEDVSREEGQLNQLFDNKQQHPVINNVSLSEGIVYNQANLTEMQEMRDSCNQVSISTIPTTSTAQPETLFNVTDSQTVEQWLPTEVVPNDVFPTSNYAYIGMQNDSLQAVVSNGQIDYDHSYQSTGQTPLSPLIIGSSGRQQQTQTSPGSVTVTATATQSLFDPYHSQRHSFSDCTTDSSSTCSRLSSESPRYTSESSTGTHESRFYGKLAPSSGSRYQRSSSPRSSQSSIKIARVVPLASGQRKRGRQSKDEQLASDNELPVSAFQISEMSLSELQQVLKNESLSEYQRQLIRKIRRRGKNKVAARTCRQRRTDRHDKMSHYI

T2: SKN-1 full-length (Caenorhabditis elegans, UniProt P34707 SEQ:1-533)
T2 sequence: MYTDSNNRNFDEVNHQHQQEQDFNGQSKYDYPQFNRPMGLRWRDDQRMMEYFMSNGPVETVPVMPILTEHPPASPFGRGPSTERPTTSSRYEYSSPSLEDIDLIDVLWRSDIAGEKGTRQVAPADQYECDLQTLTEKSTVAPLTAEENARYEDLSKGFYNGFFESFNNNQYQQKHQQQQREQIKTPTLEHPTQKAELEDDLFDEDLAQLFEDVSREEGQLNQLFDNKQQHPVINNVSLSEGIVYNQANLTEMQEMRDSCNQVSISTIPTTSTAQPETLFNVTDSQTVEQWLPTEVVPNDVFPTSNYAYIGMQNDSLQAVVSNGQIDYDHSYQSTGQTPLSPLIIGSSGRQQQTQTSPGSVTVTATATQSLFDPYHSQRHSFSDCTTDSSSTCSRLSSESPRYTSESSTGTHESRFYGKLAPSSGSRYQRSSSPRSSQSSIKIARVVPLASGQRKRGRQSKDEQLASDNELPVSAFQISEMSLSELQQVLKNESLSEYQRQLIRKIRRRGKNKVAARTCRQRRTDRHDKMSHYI

T3: SKN-1 DNA binding domain (SKN domain, 85 aa) (Caenorhabditis elegans, UniProt P34707 SEQ:1-85)
T3 sequence: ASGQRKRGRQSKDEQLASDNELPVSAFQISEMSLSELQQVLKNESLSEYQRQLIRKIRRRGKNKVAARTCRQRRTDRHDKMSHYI


Key:
SKN-1 peptides = target: T1, SKN-1 peptides
SKN-1 full-length = target: T2, SKN-1 full-length; assay: EMSA; no binding to mutant probe; as unlabeled competitor much less effective than wild type; conditions: label: 32P
Method: (§1) FIGS. 4A and 4B: Specific binding of SKN-1 to an essential gcs-1 promoter sequence. 4A: Binding of full-length SKN-1 to site 3 within the gcs-1 composite element, assayed by EMSA. Lanes 2-5 show binding of increasing amounts of in vitro translated SKN-1 protein (0 μl, 0.25 μl, 0.5 μl, 3 μl translation lysate; indicated by a triangle) to the wild type site. […] A background species is labeled. Lanes 6-10 show the same assay performed with the mutant probe. In lanes 11-20, SKN-1-DNA binding is assayed in the presence of the indicated unlabelled competitor oligonucleotides. Lanes 12-15 and 17-20 correspond to addition of a 20-, 50-, 150-, and 400-fold molar excess of competitor over the labeled wild-type DNA. 4B: The in vitro translated SKN-1 DNA binding domain (FIG. 1B) binds specifically to the gcs-1 composite element. Binding was assayed as in 4A.
(§2) Remarkably, SKN-1 binding site 3 is located within a 42 bp gcs-1 promoter element that is similar to a composite motif through which SKN-1 activates med-1 and med-2 in the embryo (FIGS. 1A and 3C) (Maduro et al. Mol. Cell 7: 475-485 (2001)). The conservation between these gcs-1 and med promoter elements is particularly striking because they are located at identical distances from their respective translation starts, but contain different numbers of SKN-1 sites (FIG. 3C). […]

[1] = target: T3, SKN-1 DNA binding domain (SKN domain, …); assay: as above; conditions: label: 32P
Method: as §1, §2

| Molecule | phosphorylation of SKN-1 by GSK-3 (SKN-1 peptides) | phosphorylation of SKN-1 peptides by GSK-3 (SKN-1 peptides) | binding result (SKN-1 full-length) | binding result [1] |
| --- | --- | --- | --- | --- |
| GSK-3 | GSK-3 then phosphorylates SKN-1 sequentially in the amino-terminal direction | Phosphorylation by GSK-3 required priming phosphorylation at a serine or threonine residue located four positions carboxyl-terminal to the GSK-3 site |  |  |
| gcs-1 composite element, site 3 mutant (dsDNA) DNA 1: ACTTTCTGCAGATGAGATTTAATGTTTCCTTTTGATTTTCT DNA 2: AGAAAATCAAAAGGAAACATTAAATCTCATCTGCAGAAAGT |  |  | no binding | no binding |
